Protein stability index data for 68 sequences are collected here from the supplement of paper PMC10724198.

The subject of this data set is Saccharomyces cerevisiae. Description: protein stability index of tFT-peptide fusion (C-terminal peptide) (PSI (0-1 scale)); higher = more stable (slower turnover). As to conditions: temperature: 30 C. How it is done: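 MPS profiling in S. cerevisiae of the yeast C-terminome library: the last 12 aa of each annotated ORF are fused to the C-terminus of a sfGFP-mCherry timer, after a GGGS linker. Cells are FACS-sorted into 8 mCherry/sfGFP bins and deep-sequenced. PSI runs from 0 (unstable) to 1 (stable); wild type and das1Δ backgrounds, two technical replicates each.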

Where [1] appears, read: genetic background: das1 deletion.

± gives the standard deviation of the averaged measurements.

For QTVRKLDMDFEV [REV1 C-terminal 12 aa], the protein stability index reads like this: under setting [1], 0.735 ± 0.032; (genetic background: wild type) 0.656 ± 0.03.
The like results for QVYYELGQIPFE [MET18 C-terminal 12 aa] were, in that order, 0.738 ± 0.0075 and 0.71 ± 0.011.
In turn, QYMTSGYASNWN [YAR061W C-terminal 12 aa] returned a protein stability index under setting [1] of 0.715 ± 0.11 and a protein stability index (genetic background: wild type) of 0.754 ± 0.096.
The corresponding values for QYQHQHQQDPRT [NAF1 C-terminal 12 aa] are 0.701 ± 0.014 and 0.728 ± 0.049.
Consider RATLNSVNSFLM [RIT1 C-terminal 12 aa], for which the protein stability index is, setting by setting: under setting [1], 0.681 ± 0.013; (genetic background: wild type) 0.673 ± 0.023.
The like results for RAVSGVELRIYV [POP7 C-terminal 12 aa] were, in that order, 0.644 ± 0.012 and 0.641 ± 0.017.
The like results for “RAVTNRSSCSRR [YCR038W-A C-terminal 12 aa]” were, in that order, 0.697 ± 0.011 and 0.689 ± 0.0074.
In the case of RDAEILAKIAKD [HSP10 C-terminal 12 aa], the protein stability index is, setting by setting: under setting [1], 0.683 ± 0.021; (genetic background: wild type) 0.677 ± 0.0077.
The corresponding values for RDMVELMKFYEL [HOS1 C-terminal 12 aa] are 0.715 ± 0.0096 and 0.6886 ± 0.0047.
The corresponding values for RDVLDDGSNIMS [IAH1 C-terminal 12 aa] are 0.6824 ± 0.0049 and 0.7 ± 0.0082.
The like results for REITKCKQIFHK [PTR3 C-terminal 12 aa] were, in that order, 0.691 ± 0.02 and 0.686 ± 0.028.
For the sequence REWFDIELNFSK [PMT4 C-terminal 12 aa], the protein stability index reads like this: under setting [1], 0.7467 ± 0.0068; (genetic background: wild type) 0.73 ± 0.024.
The corresponding values for RGENGQFWIGTK [BNI5 C-terminal 12 aa] are 0.744 ± 0.027 and 0.702 ± 0.03.
The corresponding values for RGIAAIRESLSN [YIR042C C-terminal 12 aa] are 0.6681 ± 0.006 and 0.697 ± 0.02.
The like results for RHELQALQAEIN [END3 C-terminal 12 aa] were, in that order, 0.715 ± 0.018 and 0.614 ± 0.018.
On to RHRKSEDRSLEA [ATR2 C-terminal 12 aa], for which the protein stability index runs as follows: under setting [1], 0.706 ± 0.029; (genetic background: wild type) 0.703 ± 0.062.
The corresponding values for RIAAGDGDDDDE [QCR9 C-terminal 12 aa] are 0.7068 ± 0.0027 and 0.674 ± 0.041.
The like results for RIEQNRPDDGVY [FMP16 C-terminal 12 aa] were, in that order, 0.682 ± 0.068 and 0.65 ± 0.017.
The corresponding values for RIYHVYGRFLIH [NCA2 C-terminal 12 aa] are 0.671 ± 0.027 and 0.404 ± 0.027.
For “RKCRVYVIQDAF [YER084W-A C-terminal 12 aa]”, the protein stability index amounted to 0.6849 ± 0.0056 under setting [1] and 0.67829 ± 0.00013 (genetic background: wild type).
The corresponding values for RKFHVVDTSLFA [MOG1 C-terminal 12 aa] are 0.688 ± 0.01 and 0.688 ± 0.05.
In the case of RKSKKDTDSDSD [BMT5 C-terminal 12 aa], the protein stability index is 0.7 ± 0.023 under setting [1] and 0.695 ± 0.055 (genetic background: wild type).
The corresponding values for RKTIRRDLASLV [TMA108 C-terminal 12 aa] are 0.691 ± 0.01 and 0.571 ± 0.031.
Take RLEKEAKIKQEE [CDC11 C-terminal 12 aa]: the protein stability index stood at 0.6967 ± 0.0039 under setting [1] and 0.678 ± 0.032 (genetic background: wild type).
The corresponding values for RLGLDWQPDSVS [MTH1 C-terminal 12 aa] are 0.695 ± 0.01 and 0.686 ± 0.039.
The corresponding values for “RLLGPCFKTGGI [YLR154W-B C-terminal 12 aa]” are 0.696 ± 0.0085 and 0.675 ± 0.043.
RLNKLEAVLQTL [PML39 C-terminal 12 aa] yielded a protein stability index under setting [1] of 0.685 ± 0.033 and a protein stability index (genetic background: wild type) of 0.72 ± 0.011.
The like results for RLSMLRPPSSSS [RSC2 C-terminal 12 aa] were, in that order, 0.7185 ± 0.0066 and 0.7059 ± 0.0021.
As to RMHRRLPFPTLN [YJR142W C-terminal 12 aa], the protein stability index turned out to be 0.699 ± 0.025 under setting [1] and 0.548 ± 0.013 (genetic background: wild type).
The corresponding values for “RNNEHSHKKYNQ [YER090C-A C-terminal 12 aa]” are 0.711 ± 0.0081 and 0.729 ± 0.092.
The like results for RRAAIHPYFQES [CDC28 C-terminal 12 aa] were, in that order, 0.729 ± 0.013 and 0.687 ± 0.015.
On to “RRHFSERRLENK [YPR074W-A C-terminal 12 aa]”, for which the protein stability index by setting is: under setting [1], 0.684 ± 0.022; (genetic background: wild type) 0.73 ± 0.025.
The like results for RRPSSTSQYLIR [CDC20 C-terminal 12 aa] were, in that order, 0.692 ± 0.01 and 0.679 ± 0.038.
The corresponding values for RSNEEMYSWSRN [SPO74 C-terminal 12 aa] are 0.698 ± 0.039 and 0.692 ± 0.0082.
The corresponding values for RTQGEGQGSMFR [TAF11 C-terminal 12 aa] are 0.7233 ± 0.0027 and 0.6719 ± 0.0047.
As for RTRPPTAVAHIA [DUG3 C-terminal 12 aa], the protein stability index runs as follows: under setting [1], 0.6938 ± 0.0057; (genetic background: wild type) 0.337 ± 0.0086.
The like results for RTTFRTLSSYGK [YHL041W C-terminal 12 aa] were, in that order, 0.713 ± 0.0099 and 0.648 ± 0.037.
Take RTTGHNLKQDFN [BUD4 C-terminal 12 aa]: the protein stability index came to 0.696 ± 0.022 under setting [1] and 0.653 ± 0.017 (genetic background: wild type).
The like results for RVVDLVEHVAKA [TDH2 C-terminal 12 aa] were, in that order, 0.705 ± 0.026 and 0.6748 ± 0.0044.
With RVYTEQNVPVVS [YNL194C C-terminal 12 aa], the protein stability index was 0.6679 ± 0.0046 under setting [1] and 0.684 ± 0.039 (genetic background: wild type).
The like results for RWELVRESWREL [HSV2 C-terminal 12 aa] were, in that order, 0.703 ± 0.03 and 0.786 ± 0.086.
Under setting [1], RYENFINMARHK [YOR097C C-terminal 12 aa] had a protein stability index of 0.816 ± 0.054.
With SAIADDDEEHKE [LHP1 C-terminal 12 aa], the protein stability index under setting [1] stood at 0.7103 ± 0.0044 and the protein stability index (genetic background: wild type) worked out at 0.678 ± 0.051.
The like results for SAIEEGISLNKG [TEL2 C-terminal 12 aa] were, in that order, 0.7058 ± 0.0048 and 0.701 ± 0.012.
The corresponding values for SAQRDRRYRKRN [RPS17B C-terminal 12 aa] are 0.721 ± 0.049 and 0.649 ± 0.018.
The corresponding values for SATFTSDHIGHI [RIM21 C-terminal 12 aa] are 0.7167 ± 0.0052 and 0.685 ± 0.042.
As for SDEFVDASEYKD [UTP9 C-terminal 12 aa], the protein stability index under setting [1] came to 0.7 ± 0.044 and the protein stability index (genetic background: wild type) was 0.6722 ± 0.0063.
The like results for SDELSRNFDSQG [VPS3 C-terminal 12 aa] were, in that order, 0.705 ± 0.017 and 0.726 ± 0.015.
The like results for SDVAKQLAALGY [RPL16A C-terminal 12 aa] were, in that order, 0.698 ± 0.024 and 0.677 ± 0.012.
The like results for SETIEELLKEVE [HYR1 C-terminal 12 aa] were, in that order, 0.708 ± 0.0081 and 0.7 ± 0.015.
Consider SFDVLAKVPNAA [RPA190 C-terminal 12 aa], for which the protein stability index by setting is: under setting [1], 0.692 ± 0.011; (genetic background: wild type) 0.655 ± 0.011.
In the case of SFNEVVKEVQAL [NHP2 C-terminal 12 aa], the protein stability index worked out at 0.687 ± 0.017 under setting [1] and 0.692 ± 0.019 (genetic background: wild type).
The corresponding values for SFRLTKRQTDND [POS5 C-terminal 12 aa] are 0.7021 ± 0.0053 and 0.709 ± 0.033.
The corresponding values for SFSYLWRNFGFI [PDR18 C-terminal 12 aa] are 0.7475 ± 0.0067 and 0.716 ± 0.027.
SGAGARGSSAAA [LYS2 C-terminal 12 aa]: the protein stability index is, setting by setting: under setting [1], 0.702 ± 0.011; (genetic background: wild type) 0.676 ± 0.032.
In turn, SGPSAMTKFGPR [ARP2 C-terminal 12 aa] yielded a protein stability index under setting [1] of 0.69 ± 0.032 and a protein stability index (genetic background: wild type) of 0.6842 ± 0.0042.
As to SIDQFRGKLNSI [URA1 C-terminal 12 aa], the protein stability index runs as follows: under setting [1], 0.701 ± 0.015; (genetic background: wild type) 0.688 ± 0.013.
The like results for SIFIASLLLAIV [FLO10 C-terminal 12 aa] were, in that order, 0.226 ± 0.0053 and 0.237 ± 0.0032.
The corresponding values for SILRIDDIAFSR [CCT4 C-terminal 12 aa] are 0.739 ± 0.033 and 0.71 ± 0.034.
The corresponding values for SIYILNVIRNAQ [YGR117C C-terminal 12 aa] are 0.6687 ± 0.0012 and 0.538 ± 0.0088.
In the case of SKEKARALGSNF [GTT1 C-terminal 12 aa], the protein stability index is, setting by setting: under setting [1], 0.712 ± 0.016; (genetic background: wild type) 0.686 ± 0.013.
The like results for SKGSPINTQYVF [AGA2 C-terminal 12 aa] were, in that order, 0.731 ± 0.02 and 0.732 ± 0.056.
The like results for SKKTTISAKKQQ [SGE1 C-terminal 12 aa] were, in that order, 0.713 ± 0.014 and 0.51092 ± 0.00037.
The like results for SKQEKPLSRPKD [GPI15 C-terminal 12 aa] were, in that order, 0.718 ± 0.013 and 0.684 ± 0.022.
As to SKSFPTAGEMRA [PET8 C-terminal 12 aa], the protein stability index is 0.711 ± 0.035 under setting [1] and 0.7283 ± 0.0038 (genetic background: wild type).
The like results for SKTSHNPNEQSV [PDR11 C-terminal 12 aa] were, in that order, 0.6953 ± 0.0037 and 0.687 ± 0.025.
For SKYNCNIPACCV [YLR122C C-terminal 12 aa], the protein stability index came out at 0.654 ± 0.017 under setting [1] and 0.6636 ± 0.0051 (genetic background: wild type).
The like results for SLDGDTYFIIRS [YDL158C C-terminal 12 aa] were, in that order, 0.713 ± 0.024 and 0.688 ± 0.033.
